Data from patent US20210032673A1.

How the values were obtained:
[1] = target: endogenous Arf6 of HEK293T cells (UniProt P62330); test: cell-based or functional assay
[2] = target: calmodulin-sepharose (BioVision) (Homo sapiens (Human)) (UniProt P0DP23); test: luciferase-IQSEC2 cell extract on calmodulin-sepharose, no added calcium (5 mM EGTA, apocalmodulin), 0.1% Triton X-100, n=6
[3] = target: calmodulin-sepharose (BioVision) (Homo sapiens (Human)) (UniProt P0DP23); test: luciferase-IQSEC2 cell extract on calmodulin-sepharose, free calcium greater than 200 nM (calcium-calmodulin), 0.1% Triton X-100, n=11
[4] = target: calmodulin-sepharose (BioVision) (Homo sapiens (Human)) (UniProt P0DP23); test: calcium dose-response of luciferase-IQSEC2 binding to calmodulin-sepharose; the number is a calcium concentration, not a protein concentration
[5] = target: human Calm1 (NM_006888) with C-terminal triple FLAG tag (human) (UniProt P0DP23); test: Lumier assay in HEK293T cells, renilla luciferase after anti-FLAG pull-down
[6] = target: human Calm2 (NM_001743) with C-terminal triple FLAG tag (human) (UniProt P0DP24); test: as above
[7] = target: human Calm3 (NM_005184) with C-terminal triple FLAG tag (human) (UniProt P0DP25); test: as above
GFP-FLAG [GFP: P42212] = test: Lumier assay in HEK293T cells, negative control interactor GFP-FLAG (background)
[8] = target: human Calm1 (NM_006888) with C-terminal triple FLAG tag (human) (UniProt P0DP23); test: Lumier assay in HEK293T cells, renilla luciferase after pull-down normalized to FLAG ELISA
[9] = target: human Calm2 (NM_001743) with C-terminal triple FLAG tag (human) (UniProt P0DP24); test: as above
[10] = target: human Calm3 (NM_005184) with C-terminal triple FLAG tag (human) (UniProt P0DP25); test: as above

Chain of endogenous Arf6 of HEK293T cells (P62330 2-175 limits assumed): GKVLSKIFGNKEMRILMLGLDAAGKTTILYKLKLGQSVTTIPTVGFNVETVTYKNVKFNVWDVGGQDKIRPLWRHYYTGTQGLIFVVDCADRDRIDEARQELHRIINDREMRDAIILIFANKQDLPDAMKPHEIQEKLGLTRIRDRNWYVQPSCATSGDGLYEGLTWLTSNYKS

Arf6 activation (Arf6-GTP, GGA3 pulldown and immunoblot) with ionomycin, fold over sham transfected cells [1] [fold] | Arf6 activation (Arf6-GTP, GGA3 pulldown and immunoblot), fold over sham transfected cells [1] [fold] | Arf6-GTP promoted, against wild type IQSEC2 protein [1] [fold] | increase in total Arf6-GTP by ELISA against cells expressing wild type IQSEC2 [1] [%] | total Arf6-GTP by ELISA, equivalent amounts of protein extract of stable HEK293T lines (spectrophotometric units) [1] | luciferase units bound to calmodulin sepharose (luciferase units) [2] | luciferase units bound to calmodulin sepharose (luciferase units) [3] | free calcium concentration at half-maximal binding [4] [µM] | fold difference of interaction strength, wild type against A350V IQSEC2 [5] [fold] | fold difference of interaction strength, wild type against A350V IQSEC2 [6] [fold] | fold difference of interaction strength, wild type against A350V IQSEC2 [7] [fold] | fold change of interaction strength, wild type against mutant IQSEC2 (GFP-FLAG [GFP: P42212]) [fold] | fold higher normalized interaction score, wild type against A350V IQSEC2 [8] [fold] | fold higher normalized interaction score, wild type against A350V IQSEC2 [9] [fold] | fold higher normalized interaction score, wild type against A350V IQSEC2 [10] [fold] | Substance
8.03 | 3.87 | – | – | – | – | – | – | – | – | – | – | – | – | – | FLAG-tagged wild type IQSEC2 (pCAGGS) (from UniProt Q5JU85 1-1488)
– | – | 30 | 25 | 0.075 | 48 | 594 | 1 | – | – | – | – | – | – | – | renilla luciferase-HAx3-A350V IQSEC2 (from UniProt Q5JU85 1-1488)
– | – | – | – | 0.06 | – | – | – | 34 | 15 | 36 | 1.07 | 31 | 14 | 31 | renilla luciferase-HAx3-wild type IQSEC2 (full length human IQSEC2, pcDNA3.1 Zeo construct) (from UniProt Q5JU85 1-1488)
